The text below walks through data of article PMC8217354.

The target of this data set is T1, N-SpTad2 (Schizosaccharomyces pombe, UniProt O94642 1-202).
T1 sequence: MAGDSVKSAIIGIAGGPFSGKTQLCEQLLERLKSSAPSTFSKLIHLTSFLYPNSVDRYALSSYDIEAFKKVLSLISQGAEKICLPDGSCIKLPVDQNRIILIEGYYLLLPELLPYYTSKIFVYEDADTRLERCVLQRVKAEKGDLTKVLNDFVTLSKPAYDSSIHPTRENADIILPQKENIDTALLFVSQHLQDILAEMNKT
Briefly: EMSA.

B1: tRNAAla (structured_RNA)
RNA: GGGCGUGUGGCGUAGUCGGUAGCGCGCUCCCUUAGCAUGGGAGAGGUCUCCGGUUCGAUUCCGGACUCGUCCACC
Regarding B1, the binding result is “no binding”.
